Measurements: the supplement of paper PMC10567573

B1: MYL5 (parent)
chain: FQFASIDVAGNLDYKALSYVITHG

Variants of: B1
Assay: protein stability index of a GFP-peptide fusion (GPS, HEK-293T) (PSI 1-6); higher = more stable
Details: c terminus: a fixed tail appended
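Also: lentivirally expressed fusions sorted by FACS into six bins by GFP to DsRed ratio, PSI derived from sequencing read proportions per bin multiplied by bin number.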

Compared with FQFASIDVAGNLDYKALSYYITHG, FQFASIDVAGNLDYKALSYHITHG is higher in protein stability index: 1.3 for the first, 3.27 for the second.

First: FQFASIDVAGNYDYKALSYVITHG
Second: FQFASIDVAGNDDYKALSYVITHG
The protein stability index of the first is higher: 2.45 for the first, 1.67 for the second.

First: FQFASIDVAGNKDYKALSYVITHG
Second: FQFASIDVAGNQDYKALSYVITHG
The protein stability index of the first is lower: 1.98 for the first, 3.21 for the second.

First: FQFASIDVAGNTDYKALSYVITHG
Second: FQFASIDVAGNEDYKALSYVITHG
The protein stability index of the first is lower: 1.83 for the first, 3.08 for the second.

Compared with FQFASIDVAGNFDYKALSYVITHG, FQFASIDVAGNPDYKALSYVITHG is lower in protein stability index: 4.33 for the first, 2.88 for the second.

Going from FQFASIDVAGNVDYKALSYVITHG to FQFASIDVAGNSDYKALSYVITHG, the protein stability index falls from 2.56 to 2.44.

Compared with FQFASIDVAGNCDYKALSYVITHG, FQFASIDVAGNLDYKALSYVIDHG is higher in protein stability index: 1.24 for the first, 1.8 for the second.

First: FQFASIDVAGNLDYKALSYVICHG
Second: FQFASIDVAGNLDYKALSYVIIHG
The protein stability index of the first is lower: 2.52 for the first, 2.55 for the second.

Going from FQFASIDVAGNLDYKALSYVIAHG to FQFASIDVAGNLDYKALSYVIQHG, the protein stability index rises from 2.03 to 2.54.

Going from FQFASIDVAGNLDYKALSYVIGHG to FQFASIDVAGNLDYKALSYVIWHG, the protein stability index rises from 3.98 to 4.39.

Compared with FQFASIDVAGNLDYKALSYVIHHG, FQFASIDVAGNLDYKALSYVINHG is lower in protein stability index: 3.83 for the first, 2.52 for the second.

Going from FQFASIDVAGNLDYKALSYVIMHG to FQFASIDVAGNLDYKALSYVIKHG, the protein stability index falls from 2.95 to 2.22.

Compared with FQFASIDVAGNLDYKALSYVIEHG, FQFASIDVAGNLVYKALSYVITHG is higher in protein stability index: 2.02 for the first, 2.86 for the second.

Going from FQFASIDVAGNLNYKALSYVITHG to FQFASIDVAGNLAYKALSYVITHG, the protein stability index falls from 3.69 to 3.41.

First: FQFASIDVAGNLLYKALSYVITHG
Second: FQFASIDVAGNLTYKALSYVITHG
The protein stability index of the first is higher: 2.49 for the first, 2.23 for the second.

Compared with FQFASIDVAGNLPYKALSYVITHG, FQFASIDVAGNLDYKALSYVITQG is higher in protein stability index: 2.51 for the first, 3.48 for the second.

Going from FQFASIDVAGNLDYKALSYVITDG to FQFASIDVAGNLDYKALSYVITRG, the protein stability index rises from 2.25 to 2.65.

First: FQFASIDVAGNLDYKALSYVITLG
Second: FQFASIDVAGNLDYKALSYVITKG
The protein stability index of the first is higher: 2.78 for the first, 1.43 for the second.

Going from FQFASIDVAGNLDYKALSYVITTG to FQFASIDVAGNLDYKALSYVITPG, the protein stability index rises from 2.42 to 2.56.

Compared with FQFASIDVAGNLDYKALSYVITAG, FQFASIDVAGNLDYKALSYVITEG is higher in protein stability index: 2.01 for the first, 2.44 for the second.

First: FQFASIDVAHNLDYKALSYVITHG
Second: FQFASIDVAANLDYKALSYVITHG
The protein stability index of the first is lower: 1.84 for the first, 2.49 for the second.

Compared with FQFASIDVADNLDYKALSYVITHG, FQFASIDVAFNLDYKALSYVITHG is higher in protein stability index: 2.05 for the first, 2.96 for the second.

Going from FQFASIDVAVNLDYKALSYVITHG to FQFASIDVAPNLDYKALSYVITHG, the protein stability index rises from 2.6 to 2.92.

Compared with FQFASIDVAQNLDYKALSYVITHG, FQFASIDVALNLDYKALSYVITHG is lower in protein stability index: 3.41 for the first, 1.72 for the second.

First: FQFASIDVAWNLDYKALSYVITHG
Second: FQFASIDVAKNLDYKALSYVITHG
The protein stability index of the first is lower: 1.35 for the first, 2.08 for the second.

Compared with FQFASIDVAENLDYKALSYVITHG, FQFASIDVAINLDYKALSYVITHG is lower in protein stability index: 3.19 for the first, 2.02 for the second.

Going from FQFASIDVANNLDYKALSYVITHG to FQFASIDVAGNLDYKALSYVPTHG, the protein stability index falls from 2.84 to 2.18.

Going from FQFASIDVAGNLDYKALSYVKTHG to FQFASIDVAGNLDYKALSYVHTHG, the protein stability index falls from 1.64 to 1.53.

Going from FQFASIDVAGNLDYKALSYVMTHG to FQFASIDVAGNLDYKALSYVQTHG, the protein stability index rises from 1.48 to 1.9.

Going from FQFASIDVAGNLDYKALSYVNTHG to FQFASIDVAGNLDYKALSYVDTHG, the protein stability index rises from 1.93 to 2.57.

First: FQFASIDVAGNLDYKALSYVSTHG
Second: FQFASIDVAGNLDYKALSYVRTHG
The protein stability index of the first is higher: 1.72 for the first, 1.03 for the second.

Going from FQFASIDVAGNLDYKALSYVATHG to FQFASIDVAGNLDYKALSYVGTHG, the protein stability index falls from 2.79 to 2.37.

Going from FQFASIDVAGNLDYKALSYVTTHG to FQFASIDVAGNLDYKALSYVVTHG, the protein stability index rises from 1.54 to 2.26.

Going from FQFASIDVAGNLDYKALSYVYTHG to FQFASIDVAGNLDYKALSYVETHG, the protein stability index rises from 1.65 to 2.11.

First: FQFASIDVAGNLDYKALSVVITHG
Second: FQFASIDVAGNLDYKALSNVITHG
The protein stability index of the first is lower: 2.19 for the first, 2.41 for the second.

Going from FQFASIDVAGNLDYKALSPVITHG to FQFASIDVAGNLDYKALSSVITHG, the protein stability index rises from 1.43 to 1.73.

Going from FQFASIDVAGNLDYKALSRVITHG to FQFASIDVAGNLDYKALSGVITHG, the protein stability index rises from 2.11 to 3.74.

Compared with FQFASIDVAGNLDYKALSFVITHG, FQFASIDVAGNLDYKALSKVITHG is lower in protein stability index: 1.87 for the first, 1.06 for the second.

First: FQFASIDVAGNLDYKALSHVITHG
Second: FQFASIDVAGNLDYKALSDVITHG
The protein stability index of the first is higher: 2.35 for the first, 1.53 for the second.

Compared with FQFASIDVAGNLDYKALSTVITHG, FQFASIDVAGNLDYKALSMVITHG is higher in protein stability index: 1.83 for the first, 2.44 for the second.

Going from FQFASIDVAGNLDYKALSWVITHG to FQFASIDVAGNLDYKALSQVITHG, the protein stability index rises from 2.69 to 3.41.

Compared with FQFASIDVAGNLDYKALSEVITHG, FQFASIDVAGNLDYKKLSYVITHG is lower in protein stability index: 2.89 for the first, 2.25 for the second.

First: FQFASIDVAGNLDYKTLSYVITHG
Second: FQFASIDVAGNLDYKELSYVITHG
The protein stability index of the first is higher: 2.44 for the first, 2.37 for the second.

Compared with FQFASIDVAGNLDYKVLSYVITHG, FQFASIDVAGNLDYKFLSYVITHG is lower in protein stability index: 3.37 for the first, 3.33 for the second.

Compared with FQFASIDVAGNLDYKPLSYVITHG, FQFASIDVAGNLDYKQLSYVITHG is lower in protein stability index: 5.11 for the first, 2.81 for the second.

Going from FQFASIDVAGNLDYKNLSYVITHG to FQFASIDVAGNLDYKSLSYVITHG, the protein stability index rises from 1.91 to 2.11.

Going from FQFASIDVAGNLDYKDLSYVITHG to FQFASIDVAGNLDYKLLSYVITHG, the protein stability index falls from 3.18 to 2.64.
